Data: patent publication US20150258192A1, “COMPOSITIONS AND METHODS FOR PREVENTING OR TREATING CHRONIC LUNG ALLOGRAFT DYSFUNCTION (CLAD) AND IDIOPATHIC PULMONARY FIBROSIS (IPF)” (priority 2014, published 2015)
No end group written: not given here.

How the values were obtained:
Test in all cases: Kinase Profiling Assay
Type in all cases: biochemical
Conditions in all cases: peptide 100 μM
[1] = molecular target: T1, IGF-1R(h), activated (Homo sapiens, UniProt P08069)
T1 construct: purchased Millipore
T1 sequence (P08069 959-1367 limits assumed): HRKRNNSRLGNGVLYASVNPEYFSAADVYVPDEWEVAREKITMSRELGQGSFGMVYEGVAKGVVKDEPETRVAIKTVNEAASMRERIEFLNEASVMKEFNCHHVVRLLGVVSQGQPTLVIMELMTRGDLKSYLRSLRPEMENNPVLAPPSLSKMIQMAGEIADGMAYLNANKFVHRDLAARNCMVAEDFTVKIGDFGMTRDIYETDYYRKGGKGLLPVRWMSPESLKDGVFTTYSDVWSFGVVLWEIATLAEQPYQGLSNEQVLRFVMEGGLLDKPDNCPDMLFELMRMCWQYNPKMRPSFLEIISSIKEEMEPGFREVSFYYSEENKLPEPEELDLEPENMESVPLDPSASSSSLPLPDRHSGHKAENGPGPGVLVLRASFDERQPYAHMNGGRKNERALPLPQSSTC
In short: (§1)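 Measured twice per kinase, activity in presence of MK2 inhibitory peptide was calculated against a 100% activity control after radiometric phosphorylation of a cationic substrate, anionic filter capture and scintillation counting; one of 266 human kinases profiled for specificity.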

[2] = molecular target: PKCδ(h) (Homo sapiens, UniProt Q05655)
Chain of PKCδ(h) (Q05655 whole entry): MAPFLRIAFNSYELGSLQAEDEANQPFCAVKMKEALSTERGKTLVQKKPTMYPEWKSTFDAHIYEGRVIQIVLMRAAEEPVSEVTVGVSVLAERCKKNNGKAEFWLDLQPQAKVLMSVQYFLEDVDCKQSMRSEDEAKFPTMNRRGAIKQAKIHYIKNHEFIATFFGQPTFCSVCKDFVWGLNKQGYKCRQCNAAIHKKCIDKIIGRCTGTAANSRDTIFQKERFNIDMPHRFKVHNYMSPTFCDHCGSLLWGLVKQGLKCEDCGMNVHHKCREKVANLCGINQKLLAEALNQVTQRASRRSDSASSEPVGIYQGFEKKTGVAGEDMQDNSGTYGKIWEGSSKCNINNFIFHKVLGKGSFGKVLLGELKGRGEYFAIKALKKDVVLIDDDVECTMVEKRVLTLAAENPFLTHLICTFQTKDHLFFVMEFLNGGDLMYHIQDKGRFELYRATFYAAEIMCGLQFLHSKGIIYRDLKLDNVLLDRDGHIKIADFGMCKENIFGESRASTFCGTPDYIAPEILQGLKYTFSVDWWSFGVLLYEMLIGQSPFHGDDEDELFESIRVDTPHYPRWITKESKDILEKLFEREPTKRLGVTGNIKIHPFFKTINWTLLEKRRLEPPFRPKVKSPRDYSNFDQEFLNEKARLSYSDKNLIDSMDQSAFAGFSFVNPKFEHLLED
In short: as §1

[3] = molecular target: T2, EphB2(h) (Homo sapiens, UniProt P29323)
T2 sequence (P29323 19-1055): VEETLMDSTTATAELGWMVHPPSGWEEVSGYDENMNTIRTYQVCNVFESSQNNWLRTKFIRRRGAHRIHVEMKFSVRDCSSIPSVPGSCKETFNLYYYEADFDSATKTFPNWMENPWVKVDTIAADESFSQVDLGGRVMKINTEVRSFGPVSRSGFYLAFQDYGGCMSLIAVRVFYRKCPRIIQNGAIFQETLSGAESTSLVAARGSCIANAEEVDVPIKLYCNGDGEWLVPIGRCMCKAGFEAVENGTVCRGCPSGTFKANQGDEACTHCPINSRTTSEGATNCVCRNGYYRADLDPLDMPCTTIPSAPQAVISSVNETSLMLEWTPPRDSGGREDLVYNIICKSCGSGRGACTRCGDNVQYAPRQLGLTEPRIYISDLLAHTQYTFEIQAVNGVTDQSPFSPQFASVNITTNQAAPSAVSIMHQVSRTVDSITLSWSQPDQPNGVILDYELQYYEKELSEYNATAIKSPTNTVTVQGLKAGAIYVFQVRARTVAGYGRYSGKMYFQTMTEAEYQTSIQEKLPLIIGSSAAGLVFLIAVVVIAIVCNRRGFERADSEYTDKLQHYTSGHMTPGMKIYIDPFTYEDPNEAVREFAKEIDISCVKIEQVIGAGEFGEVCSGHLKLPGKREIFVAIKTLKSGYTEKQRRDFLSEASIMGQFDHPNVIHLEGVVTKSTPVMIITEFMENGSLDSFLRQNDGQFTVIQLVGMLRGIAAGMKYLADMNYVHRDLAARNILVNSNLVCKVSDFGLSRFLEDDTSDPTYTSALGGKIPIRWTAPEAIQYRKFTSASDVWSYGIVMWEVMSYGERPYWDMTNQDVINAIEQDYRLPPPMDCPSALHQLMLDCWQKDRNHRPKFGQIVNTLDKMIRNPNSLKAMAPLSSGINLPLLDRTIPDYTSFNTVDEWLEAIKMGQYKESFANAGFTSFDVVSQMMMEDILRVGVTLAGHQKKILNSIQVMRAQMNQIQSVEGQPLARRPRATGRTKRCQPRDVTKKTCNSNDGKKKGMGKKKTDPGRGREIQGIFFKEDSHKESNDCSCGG
In short: as §1

[4] = molecular target: T3, BrSK1(h) (Homo sapiens, UniProt Q8TDC3)
T3 sequence (Q8TDC3 1-778): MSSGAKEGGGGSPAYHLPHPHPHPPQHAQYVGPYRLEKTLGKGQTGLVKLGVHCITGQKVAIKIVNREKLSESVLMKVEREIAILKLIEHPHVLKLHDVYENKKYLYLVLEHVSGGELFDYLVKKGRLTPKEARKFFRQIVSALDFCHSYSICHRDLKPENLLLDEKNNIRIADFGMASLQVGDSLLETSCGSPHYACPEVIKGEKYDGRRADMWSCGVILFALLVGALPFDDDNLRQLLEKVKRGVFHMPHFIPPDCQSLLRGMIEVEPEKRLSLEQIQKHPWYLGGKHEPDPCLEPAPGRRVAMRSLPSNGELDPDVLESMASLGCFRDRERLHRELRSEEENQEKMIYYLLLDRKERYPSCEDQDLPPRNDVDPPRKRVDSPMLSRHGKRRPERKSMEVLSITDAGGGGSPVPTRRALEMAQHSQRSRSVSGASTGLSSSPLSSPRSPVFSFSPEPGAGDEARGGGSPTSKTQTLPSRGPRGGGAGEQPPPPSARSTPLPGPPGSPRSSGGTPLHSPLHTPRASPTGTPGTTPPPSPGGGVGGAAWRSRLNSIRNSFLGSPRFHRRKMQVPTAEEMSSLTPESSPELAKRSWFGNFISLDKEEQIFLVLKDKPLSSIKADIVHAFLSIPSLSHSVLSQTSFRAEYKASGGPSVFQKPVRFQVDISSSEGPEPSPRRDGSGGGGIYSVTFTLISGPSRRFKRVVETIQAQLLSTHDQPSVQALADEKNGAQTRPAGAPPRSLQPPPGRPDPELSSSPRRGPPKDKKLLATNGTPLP
In short: as §1

[5] = molecular target: PDGFRβ(h) (Homo sapiens, UniProt P09619)
Chain of PDGFRβ(h) (P09619 33-1106): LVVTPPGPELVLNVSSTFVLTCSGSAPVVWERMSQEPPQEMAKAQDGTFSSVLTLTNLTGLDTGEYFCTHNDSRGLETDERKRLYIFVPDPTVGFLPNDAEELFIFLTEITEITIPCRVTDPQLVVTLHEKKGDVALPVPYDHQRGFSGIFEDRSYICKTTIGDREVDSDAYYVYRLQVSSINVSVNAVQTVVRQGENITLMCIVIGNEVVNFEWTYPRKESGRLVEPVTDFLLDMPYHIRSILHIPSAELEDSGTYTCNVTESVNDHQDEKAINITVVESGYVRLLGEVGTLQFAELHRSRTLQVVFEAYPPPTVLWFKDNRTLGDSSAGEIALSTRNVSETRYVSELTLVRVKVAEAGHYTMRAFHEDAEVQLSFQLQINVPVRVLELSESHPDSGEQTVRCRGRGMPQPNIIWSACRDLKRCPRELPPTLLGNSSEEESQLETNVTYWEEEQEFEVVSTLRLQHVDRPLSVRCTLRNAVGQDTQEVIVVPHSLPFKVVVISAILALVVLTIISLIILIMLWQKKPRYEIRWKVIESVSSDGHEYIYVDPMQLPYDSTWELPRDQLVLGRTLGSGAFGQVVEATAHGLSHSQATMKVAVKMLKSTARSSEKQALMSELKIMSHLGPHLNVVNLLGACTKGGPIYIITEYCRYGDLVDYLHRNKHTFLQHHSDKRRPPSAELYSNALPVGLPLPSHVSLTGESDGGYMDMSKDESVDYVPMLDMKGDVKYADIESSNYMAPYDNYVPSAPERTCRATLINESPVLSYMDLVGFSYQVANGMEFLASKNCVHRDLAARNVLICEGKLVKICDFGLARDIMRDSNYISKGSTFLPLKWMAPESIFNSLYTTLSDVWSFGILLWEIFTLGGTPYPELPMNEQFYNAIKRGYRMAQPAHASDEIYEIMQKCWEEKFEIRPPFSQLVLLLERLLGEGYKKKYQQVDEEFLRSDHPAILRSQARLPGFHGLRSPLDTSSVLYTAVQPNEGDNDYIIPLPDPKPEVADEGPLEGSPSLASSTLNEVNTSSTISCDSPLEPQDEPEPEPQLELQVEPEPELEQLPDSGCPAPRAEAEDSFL
In short: as §1

[6] = molecular target: T4, KDR(h) (Homo sapiens, UniProt P35968)
T4 construct: purchased Millipore
T4 sequence (P35968 20-1356): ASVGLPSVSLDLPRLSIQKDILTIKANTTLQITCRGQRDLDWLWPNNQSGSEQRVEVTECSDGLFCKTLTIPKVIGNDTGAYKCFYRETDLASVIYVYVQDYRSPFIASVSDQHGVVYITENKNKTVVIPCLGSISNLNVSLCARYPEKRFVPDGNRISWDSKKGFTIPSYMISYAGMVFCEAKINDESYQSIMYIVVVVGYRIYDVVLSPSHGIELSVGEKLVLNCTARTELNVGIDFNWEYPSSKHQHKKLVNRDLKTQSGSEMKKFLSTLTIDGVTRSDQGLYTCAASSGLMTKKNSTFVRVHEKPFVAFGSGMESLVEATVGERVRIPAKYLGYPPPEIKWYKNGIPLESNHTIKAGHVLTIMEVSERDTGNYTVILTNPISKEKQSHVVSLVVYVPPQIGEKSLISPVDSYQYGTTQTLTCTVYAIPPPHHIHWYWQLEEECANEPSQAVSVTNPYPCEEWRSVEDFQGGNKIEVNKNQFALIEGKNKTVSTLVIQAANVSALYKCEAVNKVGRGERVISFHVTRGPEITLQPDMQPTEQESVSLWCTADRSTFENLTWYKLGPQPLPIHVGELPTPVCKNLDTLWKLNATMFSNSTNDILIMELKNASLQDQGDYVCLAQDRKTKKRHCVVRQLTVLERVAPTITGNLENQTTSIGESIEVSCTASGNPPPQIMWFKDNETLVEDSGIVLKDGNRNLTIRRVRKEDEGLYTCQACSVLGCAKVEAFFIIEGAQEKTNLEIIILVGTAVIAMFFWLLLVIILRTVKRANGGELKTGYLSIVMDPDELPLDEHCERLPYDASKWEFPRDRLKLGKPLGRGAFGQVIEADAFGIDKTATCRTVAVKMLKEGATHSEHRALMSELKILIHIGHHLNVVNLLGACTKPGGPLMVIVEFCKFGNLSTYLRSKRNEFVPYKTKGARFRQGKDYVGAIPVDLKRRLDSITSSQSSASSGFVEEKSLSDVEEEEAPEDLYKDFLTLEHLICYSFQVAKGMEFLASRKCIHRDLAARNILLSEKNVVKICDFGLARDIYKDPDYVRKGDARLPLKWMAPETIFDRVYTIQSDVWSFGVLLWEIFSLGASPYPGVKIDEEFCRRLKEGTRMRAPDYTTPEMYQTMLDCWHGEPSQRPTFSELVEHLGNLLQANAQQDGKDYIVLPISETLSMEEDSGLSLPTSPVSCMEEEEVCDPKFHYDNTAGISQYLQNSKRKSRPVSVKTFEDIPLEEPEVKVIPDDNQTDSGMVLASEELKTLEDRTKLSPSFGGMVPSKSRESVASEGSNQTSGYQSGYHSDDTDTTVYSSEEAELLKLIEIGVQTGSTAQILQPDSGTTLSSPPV
In short: as §1

[7] = molecular target: T5, JNK3(h) (Homo sapiens, UniProt P53779)
T5 construct: purchased Millipore
T5 sequence (P53779 whole entry): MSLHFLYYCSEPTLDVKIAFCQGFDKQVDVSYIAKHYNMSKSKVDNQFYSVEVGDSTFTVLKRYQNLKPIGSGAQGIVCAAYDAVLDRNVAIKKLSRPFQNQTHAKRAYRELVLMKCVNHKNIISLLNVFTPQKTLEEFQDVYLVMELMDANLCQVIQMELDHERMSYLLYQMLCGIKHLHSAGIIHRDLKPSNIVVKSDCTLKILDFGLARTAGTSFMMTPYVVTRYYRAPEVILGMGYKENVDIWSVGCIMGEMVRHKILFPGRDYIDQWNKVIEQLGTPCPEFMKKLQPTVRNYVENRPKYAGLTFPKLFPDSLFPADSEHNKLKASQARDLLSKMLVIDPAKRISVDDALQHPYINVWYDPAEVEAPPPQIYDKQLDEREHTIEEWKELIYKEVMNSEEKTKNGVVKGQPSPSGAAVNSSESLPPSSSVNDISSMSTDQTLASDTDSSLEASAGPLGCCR
In short: as §1

Sequence	% activity [1] [%]	% activity [2] [%]	% activity [3] [%]	% activity [4] [%]	% activity [5] [%]	% activity [6] [%]	% activity [7] [%]
YARAAARQARAKALNRQLGVA (Mammal) [MMI-0200]	94	101	128	93	137	110	90
YARAAARQARAKALARQLGVAA [MMI-0100]	126		68	100		100	
HRRIKAWLKKIKALARQLGVAA (Mammal) [MMI-0500]	45	61	70	72	40	15	171
KAFAKLAARLYRKALARQLGVAA [MMI-0400]	77	90	22	76	53	94	70
FAKLAARLYRKALARQLGVAA [MMI-0300]	80	101	18	67	81	101	89
